Measurements as given in patent publication US20140087995A1 (published 2014).
Values belong to the binder of their own block, whether it stands above or below them. Numbered stars: 1 amine (or outer) side, 2 acyl side, 3 side chain; on linkers, the order of the positions; unused ones are H or OH. Bridge positions count the residues as written; N and C are the ends. * marks the point of attachment. C20 diacid = O=C(O)CCCCCCCCCCCCCCCCCCC(=O)*; γGlu = O=C(O)[C@H](CCC(=O)[*:2])N[*:1]

Molecular target: T1, human amylin receptor (amylin 3(a) receptor: human calcitonin receptor with RAMP-3) (human, UniProt P30988 25-474; O60896 24-148)
T1 construct: whole, on cells; also called hAmylin-R; hAmylinR
T1 sequence (looked up) 1: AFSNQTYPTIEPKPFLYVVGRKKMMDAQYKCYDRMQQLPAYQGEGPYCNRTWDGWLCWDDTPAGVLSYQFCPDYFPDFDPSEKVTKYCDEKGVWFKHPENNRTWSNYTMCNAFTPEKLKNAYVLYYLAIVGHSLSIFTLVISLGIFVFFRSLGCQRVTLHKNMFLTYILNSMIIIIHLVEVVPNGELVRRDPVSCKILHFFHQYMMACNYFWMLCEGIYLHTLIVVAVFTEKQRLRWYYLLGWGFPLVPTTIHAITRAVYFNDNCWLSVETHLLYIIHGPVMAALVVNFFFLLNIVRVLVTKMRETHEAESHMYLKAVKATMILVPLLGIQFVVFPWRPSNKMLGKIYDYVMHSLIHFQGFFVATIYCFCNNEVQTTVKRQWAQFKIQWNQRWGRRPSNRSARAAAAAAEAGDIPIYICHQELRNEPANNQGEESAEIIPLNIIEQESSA
T1 sequence (looked up) 2: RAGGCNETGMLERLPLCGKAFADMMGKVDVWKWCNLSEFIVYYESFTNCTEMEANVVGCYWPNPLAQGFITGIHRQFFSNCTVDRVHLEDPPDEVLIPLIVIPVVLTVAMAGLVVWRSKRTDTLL
Experiment: SPA displacement of 125I-rat amylin, hAmylin 3(a) receptor membranes
Procedure: The binding assay was performed using scintillation proximity assay (SPA) beads (RPNQ0001) from PerkinElmer and cell membranes from the Amylin 3(a)/CRE-luc cells (as described in Assay (II)) were used. Membranes were prepared in the following way; the cells were rinsed with PBS and incubated with Versene for approximately 5 min before harvesting. The cells were flushed with PBS and the cell-suspension was centrifuged for 5 min at 1000 rpm. Cells were homogenized (ultrathurrax) in a buffer containing 20 mM Na-HEPES and 10 mM EDTA (pH 7.4) and centrifuged at 20.000 rpm for 15 min. The resulting pellet was resuspended, homogenized and centrifuged (20.000 rpm, 15 min) in a buffer containing 20 mM Na-HEPES and 0.1 mM EDTA (pH 7.4, buffer 2). The resulting pellet was resuspended in buffer 2 and protein concentration was measured (BCA protein Assay, Pierce). The homogenate was kept cold during the whole procedure. The membranes were kept at −80° C. until use. The assay was performed in a 384 well Optiplate (PerkinElmer) in a total volume of 40 ul. Membranes were mixed with SPA beads. Final concentration of membranes 35 ng/μL final and SPA beads was 0.05 mg/well. Test-compounds were dissolved in DMSO and further diluted in assay buffer (50 mM Hepes, pH 7.4, 1 mM CaCl2, 5 mM MgCl₂, 0.1% OA and 0.02% Tween20). […] The final mixture was incubated with shaking at 400 rpm for 120 min at 25° C. prior to centrifugation (1500 rpm, 10 min). Samples were analyzed on TopCounter™ (Packard). The IC₅₀ was calculated using (one site binding competition analysis) GraphPad Prism5 as a measure of receptor affinity.

B1: N^α1-[(4S)-4-carboxy-4-(19-carboxynonadecanoylamino)butanoyl]-[Glu14,Arg17,Pro21,Pro27,Arg35]-h-amylin (peptide)
peptide: {C20 diacid-γGlu}-KCNTATCATQRLAEFLRHSSPNFGAIPSSTNVGSRTY-NH2
modifications: disulfide 2-7
SMILES: CC[C@H](C)[C@H](NC(=O)[C@H](C)NC(=O)CNC(=O)[C@H](Cc1ccccc1)NC(=O)[C@H](CC(N)=O)NC(=O)[C@@H]1CCCN1C(=O)[C@H](CO)NC(=O)[C@H](CO)NC(=O)[C@H](Cc1c[nH]cn1)NC(=O)[C@H](CCCNC(=N)N)NC(=O)[C@H](CC(C)C)NC(=O)[C@H](Cc1ccccc1)NC(=O)[C@H](CCC(=O)O)NC(=O)[C@H](C)NC(=O)[C@H](CC(C)C)NC(=O)[C@H](CCCNC(=N)N)NC(=O)[C@H](CCC(N)=O)NC(=O)[C@@H](NC(=O)[C@H](C)NC(=O)[C@@H]1CSSC[C@H](NC(=O)[C@H](CCCCN)NC(=O)CC[C@H](NC(=O)CCCCCCCCCCCCCCCCCCC(=O)O)C(=O)O)C(=O)N[C@@H](CC(N)=O)C(=O)N[C@@H]([C@@H](C)O)C(=O)N[C@@H](C)C(=O)N[C@@H]([C@@H](C)O)C(=O)N1)[C@@H](C)O)C(=O)N1CCC[C@H]1C(=O)N[C@@H](CO)C(=O)N[C@@H](CO)C(=O)N[C@H](C(=O)N[C@@H](CC(N)=O)C(=O)N[C@H](C(=O)NCC(=O)N[C@@H](CO)C(=O)N[C@@H](CCCNC(=N)N)C(=O)N[C@H](C(=O)N[C@@H](Cc1ccc(O)cc1)C(N)=O)[C@@H](C)O)C(C)C)[C@@H](C)O
notes: also called 16; compound 16
IC50: 0.894 nM

B5: N^α1-[(4S)-4-carboxy-4-(19-carboxynonadecanoylamino)butanoyl]-[Glu14,Arg17,Pro21,Pro27,His35]-h-amylin (peptide)
peptide: {C20 diacid-γGlu}-KCNTATCATQRLAEFLRHSSPNFGAIPSSTNVGSHTY-NH2
modifications: disulfide 2-7
SMILES: CC[C@H](C)[C@H](NC(=O)[C@H](C)NC(=O)CNC(=O)[C@H](Cc1ccccc1)NC(=O)[C@H](CC(N)=O)NC(=O)[C@@H]1CCCN1C(=O)[C@H](CO)NC(=O)[C@H](CO)NC(=O)[C@H](Cc1c[nH]cn1)NC(=O)[C@H](CCCNC(=N)N)NC(=O)[C@H](CC(C)C)NC(=O)[C@H](Cc1ccccc1)NC(=O)[C@H](CCC(=O)O)NC(=O)[C@H](C)NC(=O)[C@H](CC(C)C)NC(=O)[C@H](CCCNC(=N)N)NC(=O)[C@H](CCC(N)=O)NC(=O)[C@@H](NC(=O)[C@H](C)NC(=O)[C@@H]1CSSC[C@H](NC(=O)[C@H](CCCCN)NC(=O)CC[C@H](NC(=O)CCCCCCCCCCCCCCCCCCC(=O)O)C(=O)O)C(=O)N[C@@H](CC(N)=O)C(=O)N[C@@H]([C@@H](C)O)C(=O)N[C@@H](C)C(=O)N[C@@H]([C@@H](C)O)C(=O)N1)[C@@H](C)O)C(=O)N1CCC[C@H]1C(=O)N[C@@H](CO)C(=O)N[C@@H](CO)C(=O)N[C@H](C(=O)N[C@@H](CC(N)=O)C(=O)N[C@H](C(=O)NCC(=O)N[C@@H](CO)C(=O)N[C@@H](Cc1c[nH]cn1)C(=O)N[C@H](C(=O)N[C@@H](Cc1ccc(O)cc1)C(N)=O)[C@@H](C)O)C(C)C)[C@@H](C)O
notes: also called 18; compound 18
IC50: 0.554 nM

B6: N^α1-[(4S)-4-carboxy-4-(19-carboxynonadecanoylamino)butanoyl]-[Glu14,Arg17,Pro21,Pro27,Pro29]-h-amylin (peptide)
peptide: {C20 diacid-γGlu}-KCNTATCATQRLAEFLRHSSPNFGAIPSPTNVGSNTY-NH2
modifications: disulfide 2-7
SMILES: CC[C@H](C)[C@H](NC(=O)[C@H](C)NC(=O)CNC(=O)[C@H](Cc1ccccc1)NC(=O)[C@H](CC(N)=O)NC(=O)[C@@H]1CCCN1C(=O)[C@H](CO)NC(=O)[C@H](CO)NC(=O)[C@H](Cc1c[nH]cn1)NC(=O)[C@H](CCCNC(=N)N)NC(=O)[C@H](CC(C)C)NC(=O)[C@H](Cc1ccccc1)NC(=O)[C@H](CCC(=O)O)NC(=O)[C@H](C)NC(=O)[C@H](CC(C)C)NC(=O)[C@H](CCCNC(=N)N)NC(=O)[C@H](CCC(N)=O)NC(=O)[C@@H](NC(=O)[C@H](C)NC(=O)[C@@H]1CSSC[C@H](NC(=O)[C@H](CCCCN)NC(=O)CC[C@H](NC(=O)CCCCCCCCCCCCCCCCCCC(=O)O)C(=O)O)C(=O)N[C@@H](CC(N)=O)C(=O)N[C@@H]([C@@H](C)O)C(=O)N[C@@H](C)C(=O)N[C@@H]([C@@H](C)O)C(=O)N1)[C@@H](C)O)C(=O)N1CCC[C@H]1C(=O)N[C@@H](CO)C(=O)N1CCC[C@H]1C(=O)N[C@H](C(=O)N[C@@H](CC(N)=O)C(=O)N[C@H](C(=O)NCC(=O)N[C@@H](CO)C(=O)N[C@@H](CC(N)=O)C(=O)N[C@H](C(=O)N[C@@H](Cc1ccc(O)cc1)C(N)=O)[C@@H](C)O)C(C)C)[C@@H](C)O
notes: also called 37; compound 37
IC50: 0.97 nM

Binder: {C20 diacid-γGlu}-KCNTATCATQRLAEFLRHSSPNFGAILPSTNVGSETY-NH2 (disulfide 2-7, also called 33; compound 33)
IC50: 0.915 nM

The next binders have a lower IC50 than those just listed; values first:

IC50: 0.204 nM
B3: N^α1-[(4S)-4-carboxy-4-(19-carboxynonadecanoylamino)butanoyl]-[Glu14,Arg17,Pro21,Pro27,Pro31]-h-amylin (peptide)
peptide: {C20 diacid-γGlu}-KCNTATCATQRLAEFLRHSSPNFGAIPSSTPVGSNTY-NH2
modifications: disulfide 2-7
SMILES: CC[C@H](C)[C@H](NC(=O)[C@H](C)NC(=O)CNC(=O)[C@H](Cc1ccccc1)NC(=O)[C@H](CC(N)=O)NC(=O)[C@@H]1CCCN1C(=O)[C@H](CO)NC(=O)[C@H](CO)NC(=O)[C@H](Cc1c[nH]cn1)NC(=O)[C@H](CCCNC(=N)N)NC(=O)[C@H](CC(C)C)NC(=O)[C@H](Cc1ccccc1)NC(=O)[C@H](CCC(=O)O)NC(=O)[C@H](C)NC(=O)[C@H](CC(C)C)NC(=O)[C@H](CCCNC(=N)N)NC(=O)[C@H](CCC(N)=O)NC(=O)[C@@H](NC(=O)[C@H](C)NC(=O)[C@@H]1CSSC[C@H](NC(=O)[C@H](CCCCN)NC(=O)CC[C@H](NC(=O)CCCCCCCCCCCCCCCCCCC(=O)O)C(=O)O)C(=O)N[C@@H](CC(N)=O)C(=O)N[C@@H]([C@@H](C)O)C(=O)N[C@@H](C)C(=O)N[C@@H]([C@@H](C)O)C(=O)N1)[C@@H](C)O)C(=O)N1CCC[C@H]1C(=O)N[C@@H](CO)C(=O)N[C@@H](CO)C(=O)N[C@H](C(=O)N1CCC[C@H]1C(=O)N[C@H](C(=O)NCC(=O)N[C@@H](CO)C(=O)N[C@@H](CC(N)=O)C(=O)N[C@H](C(=O)N[C@@H](Cc1ccc(O)cc1)C(N)=O)[C@@H](C)O)C(C)C)[C@@H](C)O
notes: also called 31; compound 31

IC50: 0.143 nM
B4: N^α1-[(4S)-4-carboxy-4-(19-carboxynonadecanoylamino)butanoyl]-[Glu14,Arg17,Pro21,Pro27]-h-amylin (peptide)
peptide: KCNTATCATQRLAEFLRHSSPNFGAIPSSTNVGSNTY
modifications: C20 diacid-gGlu on alpha amino group of N-terminal Lys 1; Cys2-Cys7 disulfide; C-terminal amide
notes: also called compound 9

IC50: 0.105 nM
B2: N^α1-[(4S)-4-carboxy-4-(19-carboxynonadecanoylamino)butanoyl]-[Glu14,Arg17,Pro21,Pro27,Asp35,Pro37]-h-amylin (peptide)
peptide: {C20 diacid-γGlu}-KCNTATCATQRLAEFLRHSSPNFGAIPSSTNVGSDTP-NH2
modifications: disulfide 2-7
SMILES: CC[C@H](C)[C@H](NC(=O)[C@H](C)NC(=O)CNC(=O)[C@H](Cc1ccccc1)NC(=O)[C@H](CC(N)=O)NC(=O)[C@@H]1CCCN1C(=O)[C@H](CO)NC(=O)[C@H](CO)NC(=O)[C@H](Cc1c[nH]cn1)NC(=O)[C@H](CCCNC(=N)N)NC(=O)[C@H](CC(C)C)NC(=O)[C@H](Cc1ccccc1)NC(=O)[C@H](CCC(=O)O)NC(=O)[C@H](C)NC(=O)[C@H](CC(C)C)NC(=O)[C@H](CCCNC(=N)N)NC(=O)[C@H](CCC(N)=O)NC(=O)[C@@H](NC(=O)[C@H](C)NC(=O)[C@@H]1CSSC[C@H](NC(=O)[C@H](CCCCN)NC(=O)CC[C@H](NC(=O)CCCCCCCCCCCCCCCCCCC(=O)O)C(=O)O)C(=O)N[C@@H](CC(N)=O)C(=O)N[C@@H]([C@@H](C)O)C(=O)N[C@@H](C)C(=O)N[C@@H]([C@@H](C)O)C(=O)N1)[C@@H](C)O)C(=O)N1CCC[C@H]1C(=O)N[C@@H](CO)C(=O)N[C@@H](CO)C(=O)N[C@H](C(=O)N[C@@H](CC(N)=O)C(=O)N[C@H](C(=O)NCC(=O)N[C@@H](CO)C(=O)N[C@@H](CC(=O)O)C(=O)N[C@H](C(=O)N1CCC[C@H]1C(N)=O)[C@@H](C)O)C(C)C)[C@@H](C)O
notes: also called 11; compound 11

IC50: 0.072 nM
Binder: {C20 diacid-γGlu}-KCNTATCATQRLAEFLRHSSPNFGAIPSSTNVGSNTP-NH2 (disulfide 2-7, also called compound 8)
